Assays:
Experiment in all cases: cell-based or functional assay
[1] = target: HIV-1 Env of isolate MGRM-AG-001 (pseudovirus) (HIV-1)
[2] = target: HIV-1 APV-17 envelope (Env) on pseudovirus (HIV-1)
[3] = target: HIV-1 CMU02 Env (pseudovirus) (HIV-1)
[4] = target: HIV-1 Env of pseudovirus MGRM-G-015 (HIV-1)
[5] = target: HIV-1 MGRM-A-010 Env (HIV-1)
[6] = target: HIV-1 93IN905 Env (HIV-1)
[7] = target: HIV-1 94UG103 Env (HIV-1)
[8] = target: HIV-1 Env of isolate CAAN.A2 (Acute), clade B (HIV-1)
[9] = target: HIV-1 MGRM-AG-011 Env (pseudovirus) (HIV-1)
[10] = target: HIV-1 Env of pseudovirus MGRM-F1-016 (clade F) (HIV-1)
[11] = target: HIV-1 envelope glycoprotein (Env) of isolate MG RM-A-007, subtype A (HIV-1)
[12] = target: HIV-1 Env of isolate MGRM-F1-013 (pseudovirus) (HIV-1)
[13] = target: HIV-1 envelope glycoprotein (Env) of isolate MG RM-A-010, subtype A (HIV-1)
[14] = target: HIV-1 envelope glycoprotein (Env) of isolate MG RM-A-011, subtype A (HIV-1)
[15] = target: HIV-1 envelope glycoprotein (Env) of isolate APV_6, on pseudovirus (HIV-1)
[16] = target: HIV-1 envelope glycoprotein (Env) of isolate MGRM-Chronic-B-008, on pseudovirus (HIV-1)
[17] = target: HIV-1 JR-CSF Env F468A (HIV-1 (isolate JR-CSF)) (UniProt P20871)
[18] = target: HIV-1 JR-CSF Env I423A (I4234 in the source) (HIV-1 (isolate JR-CSF)) (UniProt P20871)
[19] = target: HIV-1 Env of isolate MGRM-D-005 (HIV-1)
[20] = target: HIV-1 Env of isolate MGRM-C-019 (subtype C), on pseudovirus (HIV-1)
[21] = target: HIV-1 Env of isolate MG RM-A-009 (pseudovirus) (HIV-1)
[22] = target: HIV-1 Env of isolate MGRM-C-020 (subtype C), on pseudovirus (HIV-1)
[23] = target: HIV-1 Env of isolate 92UG005 (HIV-1)
[24] = target: HIV-1 Env of isolate MGRM-C-026 (subtype C), on pseudovirus (HIV-1)
[25] = target: HIV-1 Env of pseudovirus isolate MGRM-Chronic-B-008 (clade B) (HIV-1)
[26] = target: HIV-1 Env of isolate MG RM-A-011 (pseudovirus) (HIV-1)
[27] = target: HIV-1 Env of pseudovirus isolate MGRM-C-026 (clade C) (HIV-1)
[28] = target: HIV-1 Env of isolate MGRM-AG-012 (subtype AG) (HIV-1)
[29] = target: HIV-1 Env of isolate MGRM-AG-002 (subtype AG) (HIV-1)
[30] = target: HIV-1 Env of isolate MGRM-Chronic-B-004 (HIV-1)
[31] = target: HIV-1 Env of isolate MGRM-F1-013 (HIV-1)
[32] = target: HIV-1 Env of isolate 94KE105 (subtype AC) (HIV-1)
[33] = target: HIV-1 Env of isolate MGRM-AG-013 (subtype AG) (HIV-1)
[34] = target: HIV-1 Env of isolate MGRM-D-019 (pseudovirus) (HIV-1)
[35] = target: HIV-1 Env of isolate MGRM-D-022 (pseudovirus) (HIV-1)

Sequence of 4970_K22 (PGT-144) (antibody) (VH): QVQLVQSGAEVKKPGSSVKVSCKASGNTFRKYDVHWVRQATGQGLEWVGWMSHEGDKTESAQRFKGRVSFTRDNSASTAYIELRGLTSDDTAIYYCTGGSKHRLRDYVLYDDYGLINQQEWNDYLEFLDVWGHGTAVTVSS
Sequence of 4970_K22 (PGT-144) (antibody) (VL): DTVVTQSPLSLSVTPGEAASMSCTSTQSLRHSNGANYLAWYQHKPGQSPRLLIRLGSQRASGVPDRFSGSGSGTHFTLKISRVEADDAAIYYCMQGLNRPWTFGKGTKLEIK
Sequence of 4980_N08 (PGT-143) (antibody) (VH): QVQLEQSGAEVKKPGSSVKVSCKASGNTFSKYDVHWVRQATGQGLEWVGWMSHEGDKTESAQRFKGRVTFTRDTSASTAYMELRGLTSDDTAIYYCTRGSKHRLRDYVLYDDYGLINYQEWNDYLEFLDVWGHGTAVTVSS
Sequence of 4980_N08 (PGT-143) (antibody) (VL): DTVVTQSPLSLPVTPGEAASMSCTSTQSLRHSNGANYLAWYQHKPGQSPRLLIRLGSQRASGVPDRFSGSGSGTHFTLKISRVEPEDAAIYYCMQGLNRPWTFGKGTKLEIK
Sequence of 5345_I01 (PGT-137) (antibody) (VH): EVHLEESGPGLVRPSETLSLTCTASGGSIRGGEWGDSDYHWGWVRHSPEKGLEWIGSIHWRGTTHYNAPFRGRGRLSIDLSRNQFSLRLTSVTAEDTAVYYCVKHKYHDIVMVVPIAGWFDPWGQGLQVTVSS
Sequence of 5345_I01 (PGT-137) (antibody) (VL): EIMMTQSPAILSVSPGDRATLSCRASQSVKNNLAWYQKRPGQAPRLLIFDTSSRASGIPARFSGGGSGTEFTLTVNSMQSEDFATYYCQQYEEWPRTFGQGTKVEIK
Sequence of 4993_K13 (PGT-141) (antibody) (VH): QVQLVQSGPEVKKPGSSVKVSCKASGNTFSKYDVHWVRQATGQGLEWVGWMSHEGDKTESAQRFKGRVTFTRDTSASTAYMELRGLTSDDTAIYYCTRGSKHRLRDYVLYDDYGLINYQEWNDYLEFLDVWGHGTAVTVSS
Sequence of 4993_K13 (PGT-141) (antibody) (VL): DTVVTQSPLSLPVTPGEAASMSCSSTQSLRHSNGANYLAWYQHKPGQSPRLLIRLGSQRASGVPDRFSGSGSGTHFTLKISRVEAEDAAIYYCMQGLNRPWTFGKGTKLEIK
Sequence of 5329_C19 (PGT-136) (antibody) (VH): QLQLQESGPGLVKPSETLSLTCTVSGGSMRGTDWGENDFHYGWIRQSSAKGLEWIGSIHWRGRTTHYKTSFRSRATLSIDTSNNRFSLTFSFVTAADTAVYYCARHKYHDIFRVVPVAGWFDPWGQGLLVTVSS
Sequence of 5329_C19 (PGT-136) (antibody) (VL): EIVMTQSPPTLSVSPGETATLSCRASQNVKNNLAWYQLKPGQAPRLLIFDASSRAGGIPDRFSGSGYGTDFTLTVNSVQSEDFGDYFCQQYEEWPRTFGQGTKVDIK

1496_C09 (PG9) (TCN-109) (antibody) was tested. Which IC50 (µg/mL), pseudovirus neutralization [1] did it give?
The IC50 (µg/mL), pseudovirus neutralization was 17.1 µg/mL.

And the neutralization IC50 [2]?
The neutralization IC50 was 26.4 µg/mL.

And the IC50 (µg/ml), pseudovirus neutralization [3]?
Its IC50 (µg/ml), pseudovirus neutralization is 7.69 µg/mL.

What about the IC50 (µg/ml), pseudovirus neutralization [4] of the same substance?
Its IC50 (µg/ml), pseudovirus neutralization is 1.51 µg/mL.

And the IC50, pseudovirus neutralization [5]?
The IC50, pseudovirus neutralization was 0.0375 µg/mL.

What about the IC50, pseudovirus neutralization [6] of the same substance?
Its IC50, pseudovirus neutralization is 0.048 µg/mL.

What about the IC50, pseudovirus neutralization [7] of the same substance?
Its IC50, pseudovirus neutralization is 0.31 µg/mL.

What about the IC50 (µg/ml), pseudovirus neutralization [8] of the same substance?
The IC50 (µg/ml), pseudovirus neutralization was 5.67 µg/mL.

And the IC50 (µg/ml), pseudovirus neutralization [9]?
Its IC50 (µg/ml), pseudovirus neutralization is 0.01 µg/mL.

And the IC50 [10]?
Its IC50 is 0.58 µg/mL.

Which results are given for 4838_L06 (PGT-121) (antibody)?
IC50, pseudovirus neutralization [11]: > 50 µg/mL; IC50 (µg/mL), pseudovirus neutralization [12]: 0.083 µg/mL; IC50, pseudovirus neutralization [13]: 2.44 µg/mL; IC50, pseudovirus neutralization [14]: > 50 µg/mL; IC50, pseudovirus neutralization [15]: 0.018 µg/mL; IC50, pseudovirus neutralization [16]: 0.007 µg/mL

For 4858_P08 (PGT-123) (antibody), which IC50 (µg/mL), pseudovirus neutralization [1] is on record?
The IC50 (µg/mL), pseudovirus neutralization was 2.51 µg/mL.

And the IC50, pseudovirus neutralization [11]?
Its IC50, pseudovirus neutralization is > 50 µg/mL.

And the IC50 (µg/mL), pseudovirus neutralization [12]?
The IC50 (µg/mL), pseudovirus neutralization was 0.08 µg/mL.

And the Fold IC50 increase relative to wild-type (pseudovirus neutralization) [17]?
The Fold IC50 increase relative to wild-type (pseudovirus neutralization) was 0.5 fold.

What about the IC50, pseudovirus neutralization [5] of the same substance?
The IC50, pseudovirus neutralization was 0.492 µg/mL.

What about the IC50, pseudovirus neutralization [6] of the same substance?
The IC50, pseudovirus neutralization was 0.0071 µg/mL.

What about the IC50, pseudovirus neutralization [13] of the same substance?
The IC50, pseudovirus neutralization was 0.705 µg/mL.

What about the IC50, pseudovirus neutralization [7] of the same substance?
The IC50, pseudovirus neutralization was 0.846 µg/mL.

And the IC50, pseudovirus neutralization [14]?
Its IC50, pseudovirus neutralization is > 50 µg/mL.

And the IC50, pseudovirus neutralization [15]?
The IC50, pseudovirus neutralization was 0.023 µg/mL.

What about the IC50, pseudovirus neutralization [16] of the same substance?
The IC50, pseudovirus neutralization was 0.01 µg/mL.

What about the Fold IC50 increase relative to wild-type (pseudovirus neutralization) [18] of the same substance?
Its Fold IC50 increase relative to wild-type (pseudovirus neutralization) is 1.5 fold.

For 4877_D15 (PGT-122) (antibody), which IC50 (µg/mL), pseudovirus neutralization [1] is on record?
The IC50 (µg/mL), pseudovirus neutralization was 14.5 µg/mL.

What about the IC50, pseudovirus neutralization [11] of the same substance?
Its IC50, pseudovirus neutralization is > 50 µg/mL.

What about the IC50 (µg/mL), pseudovirus neutralization [12] of the same substance?
Its IC50 (µg/mL), pseudovirus neutralization is 0.152 µg/mL.

And the IC50, pseudovirus neutralization [5]?
Its IC50, pseudovirus neutralization is 1.68 µg/mL.

And the IC50, pseudovirus neutralization [6]?
Its IC50, pseudovirus neutralization is 0.0138 µg/mL.

What about the IC50, pseudovirus neutralization [13] of the same substance?
Its IC50, pseudovirus neutralization is 2.51 µg/mL.

What about the IC50, pseudovirus neutralization [7] of the same substance?
The IC50, pseudovirus neutralization was 1.46 µg/mL.

And the IC50, pseudovirus neutralization [14]?
Its IC50, pseudovirus neutralization is > 50 µg/mL.

And the IC50, pseudovirus neutralization [15]?
Its IC50, pseudovirus neutralization is 0.019 µg/mL.

What about the IC50, pseudovirus neutralization [16] of the same substance?
Its IC50, pseudovirus neutralization is 0.017 µg/mL.

Which results are given for 4970_K22 (PGT-144) (antibody)?
IC50 (µg/mL), pseudovirus neutralization [19]: 14.8 µg/mL; IC50, single-round pseudovirus neutralization [20]: 0.513 µg/mL; IC50 (µg/mL), single-round pseudovirus neutralization [21]: 2.83 µg/mL; IC50, single-round pseudovirus neutralization [22]: 1.29 µg/mL; IC50 (µg/mL), pseudovirus neutralization [23]: > 50 µg/mL; IC50, single-round pseudovirus neutralization [24]: > 50 µg/mL; IC50, pseudovirus neutralization [25]: > 50 µg/mL; IC50 (µg/mL), single-round pseudovirus neutralization [26]: > 50 µg/mL

Which results are given for 4980_N08 (PGT-143) (antibody)?
IC50 (µg/mL), pseudovirus neutralization [19]: 1.41 µg/mL; IC50, single-round pseudovirus neutralization [20]: 0.004 µg/mL; IC50 (µg/mL), single-round pseudovirus neutralization [21]: 0.05 µg/mL; IC50, single-round pseudovirus neutralization [22]: 0.797 µg/mL; IC50 (µg/mL), pseudovirus neutralization [23]: > 50 µg/mL; IC50, single-round pseudovirus neutralization [24]: > 50 µg/mL; IC50, pseudovirus neutralization [25]: > 50 µg/mL; IC50 (µg/mL), single-round pseudovirus neutralization [26]: > 50 µg/mL

How did the IC50 (µg/mL), pseudovirus neutralization [19] turn out when 4993_K13 (PGT-141) (antibody) was run?
The IC50 (µg/mL), pseudovirus neutralization was 5.15 µg/mL.

What about the IC50, single-round pseudovirus neutralization [20] of the same substance?
The IC50, single-round pseudovirus neutralization was 0.008 µg/mL.

What about the IC50 (µg/mL), single-round pseudovirus neutralization [21] of the same substance?
The IC50 (µg/mL), single-round pseudovirus neutralization was 0.029 µg/mL.

And the IC50, single-round pseudovirus neutralization [22]?
The IC50, single-round pseudovirus neutralization was 1.34 µg/mL.

What about the IC50 (µg/mL), pseudovirus neutralization [23] of the same substance?
The IC50 (µg/mL), pseudovirus neutralization was > 5 µg/mL.

What about the IC50, single-round pseudovirus neutralization [24] of the same substance?
Its IC50, single-round pseudovirus neutralization is > 50 µg/mL.

What about the IC50, pseudovirus neutralization [25] of the same substance?
The IC50, pseudovirus neutralization was > 50 µg/mL.

What about the IC50 (µg/mL), single-round pseudovirus neutralization [26] of the same substance?
The IC50 (µg/mL), single-round pseudovirus neutralization was > 50 µg/mL.

With 5329_C19 (PGT-136) (antibody) as the substance, how does the IC50, pseudovirus neutralization [27] read?
Its IC50, pseudovirus neutralization is 0.006 µg/mL.

What about the IC50, pseudovirus neutralization [28] of the same substance?
The IC50, pseudovirus neutralization was > 50 µg/mL.

What about the IC50, pseudovirus neutralization [29] of the same substance?
The IC50, pseudovirus neutralization was > 50 µg/mL.

And the IC50 (µg/mL), pseudovirus neutralization [30]?
Its IC50 (µg/mL), pseudovirus neutralization is > 50 µg/mL.

What about the IC50 (µg/mL), pseudovirus neutralization [31] of the same substance?
The IC50 (µg/mL), pseudovirus neutralization was > 50 µg/mL.

And the IC50, pseudovirus neutralization [32]?
The IC50, pseudovirus neutralization was > 50 µg/mL.

And the IC50, pseudovirus neutralization [33]?
The IC50, pseudovirus neutralization was > 50 µg/mL.

What about the IC50 (µg/mL), pseudovirus neutralization [34] of the same substance?
The IC50 (µg/mL), pseudovirus neutralization was > 50 µg/mL.

And the IC50 (µg/mL), pseudovirus neutralization [35]?
The IC50 (µg/mL), pseudovirus neutralization was > 50 µg/mL.

What does the source list for 5343_B08 (PGT-135) (antibody)?
IC50, pseudovirus neutralization [27]: 0.004 µg/mL; IC50, pseudovirus neutralization [28]: 41.9 µg/mL; IC50, pseudovirus neutralization [29]: > 50 µg/mL; Fold IC50 increase relative to wild-type (pseudovirus neutralization) [17]: 1.1 fold; IC50 (µg/mL), pseudovirus neutralization [30]: > 50 µg/mL; IC50 (µg/mL), pseudovirus neutralization [31]: 21.1 µg/mL; IC50, pseudovirus neutralization [32]: 0.063 µg/mL; IC50, pseudovirus neutralization [33]: > 50 µg/mL; IC50 (µg/mL), pseudovirus neutralization [34]: > 50 µg/mL; IC50 (µg/mL), pseudovirus neutralization [35]: > 50 µg/mL; Fold IC50 increase relative to wild-type (pseudovirus neutralization) [18]: 0.1 fold

With 5345_I01 (PGT-137) (antibody) as the substance, how does the IC50, pseudovirus neutralization [27] read?
The IC50, pseudovirus neutralization was 0.011 µg/mL.

What about the IC50, pseudovirus neutralization [28] of the same substance?
The IC50, pseudovirus neutralization was > 50 µg/mL.

And the IC50, pseudovirus neutralization [29]?
Its IC50, pseudovirus neutralization is > 50 µg/mL.

And the IC50 (µg/mL), pseudovirus neutralization [30]?
The IC50 (µg/mL), pseudovirus neutralization was > 50 µg/mL.

What about the IC50 (µg/mL), pseudovirus neutralization [31] of the same substance?
Its IC50 (µg/mL), pseudovirus neutralization is > 50 µg/mL.

What about the IC50, pseudovirus neutralization [32] of the same substance?
Its IC50, pseudovirus neutralization is 18.5 µg/mL.

What about the IC50, pseudovirus neutralization [33] of the same substance?
Its IC50, pseudovirus neutralization is > 50 µg/mL.

What about the IC50 (µg/mL), pseudovirus neutralization [34] of the same substance?
The IC50 (µg/mL), pseudovirus neutralization was > 50 µg/mL.

What about the IC50 (µg/mL), pseudovirus neutralization [35] of the same substance?
The IC50 (µg/mL), pseudovirus neutralization was > 50 µg/mL.

With PGV04 (antibody) as the substance, how does the IC50 (µg/mL), pseudovirus neutralization [1] read?
The IC50 (µg/mL), pseudovirus neutralization was 0.218 µg/mL.

Source: patent US20240132578A1
